Assay results from PMC5575521, “Liver microsomal lipid enhances the activity and redox coupling of colocalized cytochrome P450 reductase‐cytochrome P450 3A4 in nanodiscs” (The Febs Journal, 2017).

Tests used:
Settings in all cases: both partners purified
[1] = biological target: T1, cytochrome P450 3A4 (CYP3A4), human, C-terminally His-tagged, expressed from pB84 (human, UniProt P08684 1-503); test: absorbance spectroscopy of the co-purified nanodiscs (fit of a convolution spectrum); CPR-CYP3A4-nanodiscs of POPC after Ni-affinity and gel filtration; spectra of singly loaded nanodiscs as basis spectra
T1 construct: human cytochrome P450 3A4 with its own N-terminal membrane anchor domain; expressed with an OmpA leader that is cleaved off during membrane targeting; source: E. coli K12 JM109, solubilised with CHAPS, purified (Ni-NTA agarose); not shown: His-tag, C-terminal, kept

[2] = biological target: T1, cytochrome P450 3A4 (CYP3A4), human, …; test: absorbance spectroscopy of the co-purified nanodiscs (fit of a convolution spectrum); CPR-CYP3A4-nanodiscs of mixed lipid (ER mimic) after Ni-affinity and gel filtration; spectra of singly loaded nanodiscs as basis spectra
[3] = biological target: T1, cytochrome P450 3A4 (CYP3A4), human, …; test: absorbance spectroscopy of the co-purified nanodiscs (fit of a convolution spectrum); CPR-CYP3A4-nanodiscs of bovine liver microsomal lipid after Ni-affinity and gel filtration; spectra of singly loaded nanodiscs as basis spectra

T1 sequence (P08684 whole entry, the tested form may be a part): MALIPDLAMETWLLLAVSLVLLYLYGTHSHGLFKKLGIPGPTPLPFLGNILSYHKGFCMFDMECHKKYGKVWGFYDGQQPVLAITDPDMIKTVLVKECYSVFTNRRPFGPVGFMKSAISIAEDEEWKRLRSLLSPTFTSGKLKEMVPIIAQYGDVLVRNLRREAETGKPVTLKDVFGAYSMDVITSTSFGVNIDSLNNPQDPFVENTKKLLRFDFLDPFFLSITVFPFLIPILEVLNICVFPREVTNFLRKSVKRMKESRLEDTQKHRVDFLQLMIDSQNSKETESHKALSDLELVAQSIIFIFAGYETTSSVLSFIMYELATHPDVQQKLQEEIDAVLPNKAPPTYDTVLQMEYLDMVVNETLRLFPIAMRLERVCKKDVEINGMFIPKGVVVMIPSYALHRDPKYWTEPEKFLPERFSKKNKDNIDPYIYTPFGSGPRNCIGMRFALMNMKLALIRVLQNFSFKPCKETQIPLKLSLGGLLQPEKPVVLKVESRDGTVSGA

B1: NADPH-dependent cytochrome P450 oxidoreductase (CPR), full-length human, expressed from pPORh1 (enzyme)
chain: GIPGSMGDSHVDTSSTVSEAVAEEVSLFSMTDMILFSLIVGLLTYWFLFRKKKEEVPEFTKIQTLTSSVRESSFVEKMKKTGRNIIVFYGSQTGTAEEFANRLSKDAHRYGMRGMSADPEEYDLADLSSLPEIDNALVVFCMATYGEGDPTDNAQDFYDWLQETDVDLSGVKFAVFGLGNKTYEHFNAMGKYVDKRLEQLGAQRIFELGLGDDDGNLEEDFITWREQFWPAVCEHFGVEATGEESSIRQYELVVHTDIDAAKVYMGEMGRLKSYENQKPPFDAKNPFLAAVTTNRKLNQGTERHLMHLELDISDSKIRYESGDHVAVYPANDSALVNQLGKILGADLDVVMSLNNLDEESNKKHPFPCPTSYRTALTYYLDITNPPRTNVLYELAQYASEPSEQELLRKMASSSGEGKELYLSWVVEARRHILAILQDCPSLRPPIDHLCELLPRLQARYYSIASSSKVHPNSVHICAVVVEYETKAGRINKGVATNWLRAKEPAGENGGRALVPMFVRKSQFRLPFKATTPVIMVGPGTGVAPFIGFIQERAWLRQQGKEVGETLLYYGCRRSDEDYLYREELAQFHRDGALTQLNVAFSREQSHKVYVQHLLKQDREHLWKLIEGGAHIYVCGDARNMARDVQNTFYDIVAELGAMEHAQAVDYIKKLMTKGRYSLDVWS
notes: printed in three-letter code as Gly-Iso-Pro-Gly-Ser; human NADPH-dependent cytochrome P450 reductase (CPR), full length with its N-terminal membrane anchor domain; Expressed with an N-terminal OmpA leader for periplasmic membrane targeting; also called cytochrome P450 reductase; full-length CPR; source: E. coli C41(DE3), solubilised from membranes with Triton X-100, purified (2',5'-ADP Sepharose …)
stoichiometry N [1]: 0.8 CPR : CYP (molar ratio) | stoichiometry N [2]: 1.1 CPR : CYP (molar ratio) | stoichiometry N [3]: 1 CPR : CYP (molar ratio)
